Article PMC3471226 (The Journal of Cell Biology, 2012)

T1: GST-Tiam1-PDZ4 (mouse, UniProt Q60610 765-1234)
T1 sequence: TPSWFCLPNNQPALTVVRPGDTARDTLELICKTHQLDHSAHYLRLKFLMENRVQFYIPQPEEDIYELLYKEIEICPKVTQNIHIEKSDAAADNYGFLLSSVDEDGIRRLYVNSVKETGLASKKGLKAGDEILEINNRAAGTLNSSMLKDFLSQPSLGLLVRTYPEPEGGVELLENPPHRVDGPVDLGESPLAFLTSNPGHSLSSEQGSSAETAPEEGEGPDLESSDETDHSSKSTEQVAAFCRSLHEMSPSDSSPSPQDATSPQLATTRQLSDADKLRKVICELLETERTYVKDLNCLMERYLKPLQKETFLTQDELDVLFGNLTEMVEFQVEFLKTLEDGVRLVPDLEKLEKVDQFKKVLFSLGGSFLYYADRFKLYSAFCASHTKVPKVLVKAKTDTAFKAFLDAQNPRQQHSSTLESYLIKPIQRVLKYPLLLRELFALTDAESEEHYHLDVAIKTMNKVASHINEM

B1: His-talin1 (1–433 aa) (domain or fragment, mouse, UniProt P26039 1-433, looked up)
chain: MVALSLKISIGNVVKTMQFEPSTMVYDACRMIRERIPEALAGPPNDFGLFLSDDDPKKGIWLEAGKALDYYMLRNGDTMEYRKKQRPLKIRMLDGTVKTIMVDDSKTVTDMLMTICARIGITNHDEYSLVRELMEEKKDEGTGTLRKDKTLLRDEKKMEKLKQKLHTDDELNWLDHGRTLREQGVEEHETLLLRRKFFYSDQNVDSRDPVQLNLLYVQARDDILNGSHPVSFDKACEFAGFQCQIQFGPHNEQKHKAGFLDLKDFLPKEYVKQKGERKIFQAHKNCGQMSEIEAKVRYVKLARSLKTYGVSFFLVKEKMKGKNKLVPRLLGITKECVMRVDEKTKEVIQEWSLTNIKRWAASPKSFTLDFGDYQDGYYSVQTTEGEQIAQLIAGYIDIILKKKKSKDHFGLEGDEESTMLEDSVSPKKSTVLQ

How the values were obtained:
[1] = target: GST-talin1 A366/368 (mouse) (UniProt P26039); assay: pull-down
GST-Tiam1-PDZ4 = target: T1, GST-Tiam1-PDZ4; assay: SPR

| Molecule | decrease of association relative to wild type [1] | Kd (GST-Tiam1-PDZ4) |
| --- | --- | --- |
| Tiam1-C1199-HA (from UniProt Q60610 1-1591) (domain or fragment) | 90% |  |
| B1 |  | ~430 nM |
